Source: patent US20230143604A1, “QW DOSING OF GIP RECEPTOR AGONIST PEPTIDE COMPOUNDS AND USES THEREOF” (TAKEDA PHARMACEUTICAL COMPANY LIMITED, priority 2020, published 2023)
Non-standard residues stand in square brackets, D forms with d. Groups on a side chain read outwards from the residue. No end group written: not given here. *: point of attachment. 2OEGgEgE‑C18 diacid = O=C(O)CCCCCCCCCCCCCCCCC(=O)N[C@@H](CCC(=O)N[C@@H](CCC(=O)NCCOCCOCC(=O)NCCOCCOCC(=O)*)C(=O)O)C(=O)O; C20 diacid = O=C(O)CCCCCCCCCCCCCCCCCCC(=O)*; NMeY = CN[C@@H](Cc1ccc(O)cc1)C(=O)O; Aib = CC(C)(N)C(=O)O

B1: Compound No. 61 (peptide)
peptide: [NMeY][Aib]EGTFISDYSIALDR[Aib]AQ[Aib]DFVNWLLAQK(2OEGgEgE‑C18 diacid)G-OH
modifications: N-terminus assumed
SMILES: CC[C@H](C)[C@H](NC(=O)[C@H](CO)NC(=O)[C@H](Cc1ccc(O)cc1)NC(=O)[C@H](CC(=O)O)NC(=O)[C@H](CO)NC(=O)[C@@H](NC(=O)[C@H](Cc1ccccc1)NC(=O)[C@@H](NC(=O)CNC(=O)[C@H](CCC(=O)O)NC(=O)C(C)(C)NC(=O)[C@H](Cc1ccc(O)cc1)NC)[C@@H](C)O)[C@@H](C)CC)C(=O)N[C@@H](C)C(=O)N[C@@H](CC(C)C)C(=O)N[C@@H](CC(=O)O)C(=O)N[C@@H](CCCNC(=N)N)C(=O)NC(C)(C)C(=O)N[C@@H](C)C(=O)N[C@@H](CCC(N)=O)C(=O)NC(C)(C)C(=O)N[C@@H](CC(=O)O)C(=O)N[C@@H](Cc1ccccc1)C(=O)N[C@H](C(=O)N[C@@H](CC(N)=O)C(=O)N[C@@H](Cc1c[nH]c2ccccc12)C(=O)N[C@@H](CC(C)C)C(=O)N[C@@H](CC(C)C)C(=O)N[C@@H](C)C(=O)N[C@@H](CCC(N)=O)C(=O)N[C@@H](CCCCNC(=O)COCCOCCNC(=O)COCCOCCNC(=O)CC[C@H](NC(=O)CC[C@H](NC(=O)CCCCCCCCCCCCCCCCC(=O)O)C(=O)O)C(=O)O)C(=O)NCC(=O)O)C(C)C
B2: Compound No. 62 (peptide)
peptide: [NMeY][Aib]EGTFISDYSI[Aib]LDR[Aib]AQ[Aib]DFVNWLLAK(2OEGgEgE‑C18 diacid)RG-OH
modifications: N-terminus assumed
SMILES: CC[C@H](C)[C@H](NC(=O)[C@H](Cc1ccccc1)NC(=O)[C@@H](NC(=O)CNC(=O)[C@H](CCC(=O)O)NC(=O)C(C)(C)NC(=O)[C@H](Cc1ccc(O)cc1)NC)[C@@H](C)O)C(=O)N[C@@H](CO)C(=O)N[C@@H](CC(=O)O)C(=O)N[C@@H](Cc1ccc(O)cc1)C(=O)N[C@@H](CO)C(=O)N[C@H](C(=O)NC(C)(C)C(=O)N[C@@H](CC(C)C)C(=O)N[C@@H](CC(=O)O)C(=O)N[C@@H](CCCNC(=N)N)C(=O)NC(C)(C)C(=O)N[C@@H](C)C(=O)N[C@@H](CCC(N)=O)C(=O)NC(C)(C)C(=O)N[C@@H](CC(=O)O)C(=O)N[C@@H](Cc1ccccc1)C(=O)N[C@H](C(=O)N[C@@H](CC(N)=O)C(=O)N[C@@H](Cc1c[nH]c2ccccc12)C(=O)N[C@@H](CC(C)C)C(=O)N[C@@H](CC(C)C)C(=O)N[C@@H](C)C(=O)N[C@@H](CCCCNC(=O)COCCOCCNC(=O)COCCOCCNC(=O)CC[C@H](NC(=O)CC[C@H](NC(=O)CCCCCCCCCCCCCCCCC(=O)O)C(=O)O)C(=O)O)C(=O)N[C@@H](CCCNC(=N)N)C(=O)NCC(=O)O)C(C)C)[C@@H](C)CC

Biological target: full-length human GLP-1R with an N-terminal FLAG tag (human, UniProt P43220 24-463)
Test: cell-based or functional assay

Binder | Human GLP1R cAMP EC50, HEK293T [nM]
B1 | > 1000
YXEGTFISDYSIAXDSXAQXDFVNWLLAQSG (N-methyl Tyr 1; Aib at 2,17,20; Lys(G5-C18 diacid) at 14; C-terminal OH) [Compound No. 60] | 100
YXEGTFISDYSIXLDSXAQXDFVNWLLAQRG (N-methyl Tyr 1; Aib at 2,13,20; Lys(G6-C18 diacid) at 17; C-terminal OH) [Compound No. 64] | 110
YXEGTFISDYSIAXDRXAQXDFVNWLLAQRG (N-methyl Tyr 1; Aib at 2,17,20; Lys(G5-C18 diacid) at 14; C-terminal OH) [Compound No. 63] | 75.9
B2 | > 1000
[NMeY][Aib]EGTFISDYSIALDR[Aib]AQ[Aib]NFVNWLLAK(2OEGgEgE‑C18 diacid)SPSSGAPPPS-NH2 [Compound No. 59] | > 1000
[NMeY][Aib]EGTFISDYSI[Aib]LDR[Aib]AQ[Aib]K([2OEGgEgE-C20 diacid])FVNWLLAQKG-OH [Compound No. 65] | 40.7

Biological target: T1, full-length human GIPR with an N-terminal FLAG tag (human, UniProt P48546 22-466)
T1 sequence (looked up): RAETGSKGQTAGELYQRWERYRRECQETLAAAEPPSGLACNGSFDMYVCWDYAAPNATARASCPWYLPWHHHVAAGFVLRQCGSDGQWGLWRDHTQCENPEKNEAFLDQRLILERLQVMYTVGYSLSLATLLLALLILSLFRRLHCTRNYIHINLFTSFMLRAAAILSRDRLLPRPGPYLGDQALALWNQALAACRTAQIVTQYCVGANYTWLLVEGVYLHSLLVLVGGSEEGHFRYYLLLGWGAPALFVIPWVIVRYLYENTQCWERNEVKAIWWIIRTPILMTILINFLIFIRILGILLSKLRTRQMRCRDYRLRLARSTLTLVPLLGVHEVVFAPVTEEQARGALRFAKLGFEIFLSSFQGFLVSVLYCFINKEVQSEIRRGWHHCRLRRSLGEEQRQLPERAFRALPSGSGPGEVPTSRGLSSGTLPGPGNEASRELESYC
Test: cell-based or functional assay

Binder | Human GIPR cAMP EC50, HEK293T [nM]
B1 | 0.0007
YXEGTFISDYSIAXDSXAQXDFVNWLLAQSG (N-methyl Tyr 1; Aib at 2,17,20; Lys(G5-C18 diacid) at 14; C-terminal OH) [Compound No. 60] | 0.0003
YXEGTFISDYSIXLDSXAQXDFVNWLLAQRG (N-methyl Tyr 1; Aib at 2,13,20; Lys(G6-C18 diacid) at 17; C-terminal OH) [Compound No. 64] | 0.0002
YXEGTFISDYSIAXDRXAQXDFVNWLLAQRG (N-methyl Tyr 1; Aib at 2,17,20; Lys(G5-C18 diacid) at 14; C-terminal OH) [Compound No. 63] | 0.0002
B2 | 0.0004
[NMeY][Aib]EGTFISDYSIALDR[Aib]AQ[Aib]NFVNWLLAK(2OEGgEgE‑C18 diacid)SPSSGAPPPS-NH2 [Compound No. 59] | 0.0005
[NMeY][Aib]EGTFISDYSI[Aib]LDR[Aib]AQ[Aib]K([2OEGgEgE-C20 diacid])FVNWLLAQKG-OH [Compound No. 65] | 0.001
